The values below come from the supplement of paper PMC10567573.

The chains are these.
B1: ALDH8A1 (parent)
chain: FTGSQPTAERITQLSAPHCKKLSL
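Note: lentivirally expressed fusions sorted by FACS into six bins by GFP to DsRed ratio, PSI derived from sequencing read proportions per bin multiplied by bin number.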

In this data set the parent is B1. Kind of data set: protein stability index of a GFP-peptide fusion (GPS, HEK-293T) (PSI 1-6); higher = more stable. Conditions: c terminus: a fixed tail appended.
For the variant FTGSQPTADRITQLSAPHCKKLSL [E9D], the protein stability index came out at 2.52. As for FTGSQPTAERITQKSAPHCKKLSL [L14K], the protein stability index stood at 2.73.

For the variant FTGSQPTAERITQISAPHCKKLSL [L14I], the protein stability index was 2.53. On to FTGSQPTAERITQGSAPHCKKLSL [L14G], for which the protein stability index is 2.56. For FTGSQPTAERITQESAPHCKKLSL [L14E], the protein stability index stood at 3.18. With FTGSQPTAERITQDSAPHCKKLSL [L14D], the protein stability index stood at 3.04. On to FTGSQPTAERITQCSAPHCKKLSL [L14C], for which the protein stability index was determined as 1.79. Under FTGSQPTAERITQHSAPHCKKLSL [L14H] stands 2.58. As for FTGSQPTAERITQTSAPHCKKLSL [L14T], the protein stability index came out at 2.87.

Regarding FTGSQPTAERITQQSAPHCKKLSL [L14Q], the protein stability index is 2.57. As to FTGSQPTAERITQSSAPHCKKLSL [L14S], the protein stability index is 2.76. On to FTGSQPTAERITQFSAPHCKKLSL [L14F], for which the protein stability index was 1.79. For the variant FTGSQPTAERITQNSAPHCKKLSL [L14N], the protein stability index was determined as 2.4. As to FTGSQPTAERITQRSAPHCKKLSL [L14R], the protein stability index is 2.37. For the variant FTGSQPTAERITQVSAPHCKKLSL [L14V], the protein stability index amounted to 1.9.

Consider FTGSQPTAERITQPSAPHCKKLSL [L14P], for which the protein stability index amounted to 2.77. As to FTGSQPTAERITQYSAPHCKKLSL [L14Y], the protein stability index amounted to 2.39.

With FTGSQPTAERITQASAPHCKKLSL [L14A], the protein stability index was determined as 2.26. Under FTGSQPTAERITQWSAPHCKKLSL [L14W] stands 2.2; under FTGSQPTAERITQMSAPHCKKLSL [L14M], 1.86; under FTGSQPTAERITQLSAPACKKLSL [H18A], 2.05.

Regarding FTGSQPTAERITQLSAPPCKKLSL [H18P], the protein stability index stood at 2.93. On to FTGSQPTAERITQLSAPLCKKLSL [H18L], for which the protein stability index amounted to 2.46. On to FTGSQPTAERITQLSAPGCKKLSL [H18G], for which the protein stability index is 2.05. For the variant FTGSQPTAERITQLSAPQCKKLSL [H18Q], the protein stability index came out at 2.29. For the variant FTGSQPTAERITQLSAPMCKKLSL [H18M], the protein stability index stood at 2.24. Consider FTGSQPTAERITQLSAPCCKKLSL [H18C], for which the protein stability index was 1.94. Take FTGSQPTAERITQLSAPKCKKLSL [H18K]: the protein stability index was determined as 2.34. To FTGSQPTAERITQLSAPDCKKLSL [H18D] belongs 3.24. Take FTGSQPTAERITQLSAPRCKKLSL [H18R]: the protein stability index was 2.55. Take FTGSQPTAERITQLSAPFCKKLSL [H18F]: the protein stability index came out at 2.25. Consider FTGSQPTAERITQLSAPNCKKLSL [H18N], for which the protein stability index was found to be 2.11.

Turning to FTGSQPTAERITQLSAPECKKLSL [H18E], the protein stability index amounted to 1.78. As for FTGSQPTAERITQLSAPVCKKLSL [H18V], the protein stability index is 3. Consider FTGSQPTAERITQLSAPTCKKLSL [H18T], for which the protein stability index stood at 2.31. Under FTGSQPTAERITQLSAPICKKLSL [H18I] stands 2.55; under FTGSQPTAERITQLSAPSCKKLSL [H18S], 2.74.

On to FTGSQPTAERITQLRAPHCKKLSL [S15R], for which the protein stability index stood at 1.71. In the case of FTGSQPTAERITQLDAPHCKKLSL [S15D], the protein stability index was 2.18. For FTGSQPTAERITQLHAPHCKKLSL [S15H], the protein stability index is 1.85. In the case of FTGSQPTAERITQLYAPHCKKLSL [S15Y], the protein stability index was found to be 3.69. On to FTGSQPTAERITQLWAPHCKKLSL [S15W], for which the protein stability index was determined as 2.39. In the case of FTGSQPTAERITQLKAPHCKKLSL [S15K], the protein stability index was determined as 1.84. As for FTGSQPTAERITQLTAPHCKKLSL [S15T], the protein stability index is 2.25. Regarding FTGSQPTAERITQLCAPHCKKLSL [S15C], the protein stability index was 2.34. In the case of FTGSQPTAERITQLGAPHCKKLSL [S15G], the protein stability index was 2.5. To FTGSQPTAERITQLQAPHCKKLSL [S15Q] belongs 2.09; to FTGSQPTAERITQLNAPHCKKLSL [S15N], 1.91; to FTGSQPTAERITQLAAPHCKKLSL [S15A], 2.39.

Take FTGSQPTAERITQLMAPHCKKLSL [S15M]: the protein stability index is 2.13. To FTGSQPTAERITQLLAPHCKKLSL [S15L] belongs 2.87; to FTGSQPTAERITQLVAPHCKKLSL [S15V], 2.36.

On to FTGSQPTAERITQLEAPHCKKLSL [S15E], for which the protein stability index was 2.37. With FTGSQPTAERITQLFAPHCKKLSL [S15F], the protein stability index was determined as 3.03. In the case of FTGSQPTAERITQLPAPHCKKLSL [S15P], the protein stability index was 2.32.

FTGSQPTAERITQLIAPHCKKLSL [S15I]: the protein stability index came out at 2.28. Regarding FTGSQPTAEDITQLSAPHCKKLSL [R10D], the protein stability index was 2.31. Consider FTGSQPTAEKITQLSAPHCKKLSL [R10K], for which the protein stability index worked out at 1.81. Consider FTGSQPTAEFITQLSAPHCKKLSL [R10F], for which the protein stability index stood at 1.9. In the case of FTGSQPTAEAITQLSAPHCKKLSL [R10A], the protein stability index is 2.31. FTGSQPTAEMITQLSAPHCKKLSL [R10M]: the protein stability index came to 1.97.

On to FTGSQPTAEYITQLSAPHCKKLSL [R10Y], for which the protein stability index turned out to be 1.65. Turning to FTGSQPTAEQITQLSAPHCKKLSL [R10Q], the protein stability index came to 2.17. Under FTGSQPTAETITQLSAPHCKKLSL [R10T] stands 2.39. On to FTGSQPTAEVITQLSAPHCKKLSL [R10V], for which the protein stability index stood at 1.63. To FTGSQPTAEGITQLSAPHCKKLSL [R10G] belongs 2.28. In the case of FTGSQPTAENITQLSAPHCKKLSL [R10N], the protein stability index was found to be 2.6. Turning to FTGSQPTAELITQLSAPHCKKLSL [R10L], the protein stability index worked out at 2.11. Turning to FTGSQPTAESITQLSAPHCKKLSL [R10S], the protein stability index was found to be 2.42. Take FTGSQPTAEEITQLSAPHCKKLSL [R10E]: the protein stability index stood at 2.51. Consider FTGSQPTAEIITQLSAPHCKKLSL [R10I], for which the protein stability index was 1.92. In the case of FTGSQPTAEWITQLSAPHCKKLSL [R10W], the protein stability index came to 1.93.

With FTGSQPTAEHITQLSAPHCKKLSL [R10H], the protein stability index was 2.3. Take FTGSQPTAECITQLSAPHCKKLSL [R10C]: the protein stability index is 1.94. Turning to FTGSQPTAEPITQLSAPHCKKLSL [R10P], the protein stability index is 2.7. To FTGSQPTAERKTQLSAPHCKKLSL [I11K] belongs 1.93; to FTGSQPTAERYTQLSAPHCKKLSL [I11Y], 2.18; to FTGSQPTAERTTQLSAPHCKKLSL [I11T], 2.84. FTGSQPTAERVTQLSAPHCKKLSL [I11V]: the protein stability index amounted to 2.44. For FTGSQPTAERCTQLSAPHCKKLSL [I11C], the protein stability index stood at 2.6.

For the variant FTGSQPTAERQTQLSAPHCKKLSL [I11Q], the protein stability index came to 2.49. Take FTGSQPTAERPTQLSAPHCKKLSL [I11P]: the protein stability index stood at 3.32.

Take FTGSQPTAERDTQLSAPHCKKLSL [I11D]: the protein stability index was 3.39. Under FTGSQPTAERETQLSAPHCKKLSL [I11E] stands 2.73; under FTGSQPTAERNTQLSAPHCKKLSL [I11N], 2.4; under FTGSQPTAERSTQLSAPHCKKLSL [I11S], 2.22. For the variant FTGSQPTAERMTQLSAPHCKKLSL [I11M], the protein stability index was found to be 2.61.

With FTGSQPTAERRTQLSAPHCKKLSL [I11R], the protein stability index turned out to be 2.81.

FTGSQPTAERFTQLSAPHCKKLSL [I11F]: the protein stability index turned out to be 2.9. On to FTGSQPTAERGTQLSAPHCKKLSL [I11G], for which the protein stability index amounted to 2.09. On to FTGSQPTAERWTQLSAPHCKKLSL [I11W], for which the protein stability index stood at 2.08. Turning to FTGSQPTAERHTQLSAPHCKKLSL [I11H], the protein stability index was 2.96. To FTGSQPTAERATQLSAPHCKKLSL [I11A] belongs 2.48. As for FTGSQPTAERLTQLSAPHCKKLSL [I11L], the protein stability index was 2.15.
